Data on three molecules can be found in patent US9624285B2, “Methods of treating diabetes and compositions capable of same” (Ramot a Tel-Aviv University Ltd., priority 2010, dated 2017).

No end group written: not given here.

Data set [1] deals with Rin-m cells. The data set is described as follows: Confocal microscopy of cells incubated with labelled oligomers. The class given is cell-based. The following applies: 5 μM. Here is the method: Rin-m cells were cultured on glass cover slips located in 24-well micro plates, then incubated for different periods with hIAPP-Hiytelfluor 488 (Anaspec, USA) oligomers (5 μM) at 37° C., as described in the cell cytotoxicity experiments section. After incubation cells were washed with PBS buffer and fixed with 4% paraformaldehyde in PBS for 5 minutes and washed with PBS buffer. Cells were treated with 1% Triton x-100 in PBS and stained with 50 μg/ml Phalloidin Tetramethyl-rhodamine B isothiocyanate (Sigma-Aldrich) in PBS 40 minutes in room temperature, followed by extensive wash with PBS buffer. The cells were imaged using LSM 510 confocal laser scanning microscope (Carl Zeiss Jena, Germany).

The test system of data set [2] is Rin-m cells. Nature of the data set: MTT reduction assay. The class given is cell-based. How it is done: Rin-m cells (2×10^5 cells/ml) were cultured in 96-well micro plates (100 μl/well) and incubated overnight at 37° C. Human oligomers and rat IAPP was added to each well at various concentrations. Each measurement was repeated four times. Following incubation for 6 hours at 37° C., cell viability was evaluated using 3-(4,5-dimethylthiazolyl-2)-2,5-diphenyltetrazolium bromide (MTT) assay. Briefly, 20 μL of 5 mg/ml MTT dissolved in PBS was added to each well. After 4 hours incubation at 37° C., 100 μl of extraction buffer [20% SDS dissolved in a solution of 50% dimethylformamide and 50% DDW (pH 4.7)] was added to each well, and the plates were incubated again overnight at 37° C. Finally, color intensity was measured using an ELISA plate reader at 570 nm.
A general note: Tetrazolium dyes change colour on reduction, which living cells bring about.

Data set [3] concerns Rin-m cells. The data set is described as follows: Flow cytometry cell sorting (FACS) assay, Annexin V-FITC apoptosis detection. The class given is cell-based. To be noted: 0.5 μM, 1 μM and 5 μM. Here is the method: Rin-m cells (5×10^5 cells/ml) were cultured for 4 hours at 37° C. incubated with human IAPP oligomers (final concentration of 0.5 μM, 1 μM and 5 μM). Samples were washed with PBS buffer and resuspended with 500 μl binding buffer. 5 μl of Annexin V-FITC and 10 μl of propidium iodide (Annexin V-FITC apoptosis detection kit; MBL) was added to the samples. After 10 minutes of incubation in the dark at RT, samples were analyzed using the FACS Sort (Beckton Dickinson) and results analyzed using the CellQuest program (Beckton Dickinson). Each measurement was repeated three times. FL1-H represents the fluorescence of V-FITC and FL2-H represents the fluorescence of […].
For orientation: A flow cytometer gives signals particle by particle.

The nature of data set [4]: Oligomer stability assay (PAGE under non reducing conditions). The class given is physicochemical. The following applies: dialyzed against PBS buffer, incubated at 37° C. How it is done:
FIGS. 1A-E are graphs and photographs illustrating characterization of human IAPP oligomers. (FIG. 1A) PAGE analysis under non-reducing conditions of human IAPP oligomers and a negative control of non amyloidogenic rat IAPP (I-monomer, II-dimer and III-trimer). (FIG. 1B) Oligomer stability assay, hIAPP oligomers were dialyzed against PBS buffer and incubated at 37° C. Oligomer association/disassociation was monitored by PAGE analysis under non reducing conditions. (FIG. 1C) Size exclusion chromatography (Superdex 75 10/300, PBS buffer pH 7.4) of hIAPP oligomers; I-monomer, […], III-trimer and IV-90 kDa oligomer. (FIG. 1D) Transmittance electron microscopy (TEM) and atomic force microscopy (AFM) images of the ˜90 kDa oligomers, TEM scale bar 100 nm, AFM scale bar 600 nm. (FIG. 1E) CD spectroscopy of hIAPP and rIAPP, protein concentration of 5 μM. Each spectrum represents the average of three measurements.
IAPP synthetic peptide (Human; H-7905, Bachem, Bubendorf, Switzerland. Rat; 74-5-10A, American peptide, California, U.S.A) was suspended in 100% 1,1,1,3,3,3 hexafluoro-2-propanol (HFIP) at 1 mg/ml and incubated for complete solubilization under shaking (100 rpm) at 37° C. for 2 hours. […] IAPP self-assembly products were analyzed by 15% Tris-tricine PAGE and stained with Imperial protein stain. […]

The mark [5] stands for this setting: pancreatic RIN-m cells, 100 nM-10 μM, 6 hours.

With “hIAPP-Hiytelfluor 488 oligomers: oligomers of fluorescently labelled hIAPP-Hiytelfluor 488 (Anaspec) (KCNTATCATQRLANFLVHSSNNFGAILSSTNVGSNTY; not fully specified (C-terminus, bridges); cysteine pairing not given here; also: HiLyte Fluor 488 label, position not given here, oligomers; UniProt P10997 34-70, looked up)”, in the data set with Rin-m cells [1] (after eight hours), the “cell morphology (confocal)” value is recorded as “Dramatic cell morphology changes”. Moreover, the “cell numbers (confocal)” value with Rin-m cells [1] (after four hours, insertion of oligomers to the cytoplasm) is on record as “massive decline in cell numbers”. Besides, the “interaction of oligomers with cells (confocal)” value in the data set on Rin-m cells [1] (after one hour) is given as “intensive localization of the oligomers to the cell membrane”.
As to “rIAPP: non amyloidogenic rat IAPP synthetic peptide, negative control, treated in the same manner [reference compound]”, the “cell viability (MTT reduction)” value in the data set with Rin-m cells [2] (setting [5]) was “showed no such effect”.

B1: hIAPP oligomers: isolated stable oligomers (dimers, trimers, ~90 kDa) of synthetic human islet amyloid polypeptide prepared with HFIP, NaOH and SDS (peptide)
peptide: MGILKLQVFLIVLSVALNHLKATPIESHQVEKRKCNTATCATQRLANFLVHSSNNFGAILSSTNVGSNTYGKRNAVEVLKREPLNYLPL
For B1, in the data set on Rin-m cells [3], the “correlation of oligomer concentration with percentage of apoptotic cells” value is “clear and strong correlation”. In addition, the “cell state (apoptosis) by FACS” value in the data set on Rin-m cells [3] (4 hours) was “mostly in the early and late apoptotic phase”. In addition, the “cell viability (MTT reduction)” value was “dose dependent decrease in cell viability” in the data set with Rin-m cells [2] (setting [5]) and “reduced dramatically” in the data set with Rin-m cells [2] (pancreatic cells, 5 μM oligomers). Moreover, the “oligomer stability (no disassembly or further polymerization to fibrils)” value is given as “up to 7 days” in data set [4] and “stable for up to seven days” in data set [4] (listed as oligomeric structures).
